# Measured values taken from the DeepSol protein solubility set.
# Assay: soluble on expression in E. coli; label from the status in PepcDB or PDB records
row,Sequence,soluble on expression in E. coli
1,MKERIVGQSGELFCFGQMPVWKVENLPEVLLSGYSSEEGEWVCLNVLQGDVEVRAPDGSAEVWSADGGDCVFAPQQVFSVKPKTDDAEIRLSLYCAAADYFHKKYGMSATHSAVAAARDTVPAGRALDMGCGQGRNALFLGLKGFEVTAVDHNPAALANVAELAEAEGLNVRTLEYDLNAAALQGEFDYIVATVVLMFLMPQRVPDVIADMQAHTAAGGYNLIVSAMDTADFPCPMPFPFKFKEGELKDYYRDWELVEYKEELGSMHAKDENGNPIRFKFVTMLAKKPELEHHHHHH,not soluble
2,MGSDKIHHHHHHMLHATAWRSALFTPTENSATSRDRADCGGIGGMSAAILLSRQGIQVDLVELNPLWAPGGAGITISGPTLRGLREVGVADEVLASGGFWNAVDVCDANSNLTVTVPIAPAVGADELPGVAGIMRTTLAEILGRATRKADTNARLGVTFETLTQDAEGVEVSFNDGSRARYDLVIGADGINSPVRKYVKPEFPGPPFTGQRSWRAVVPRLQENSLMYMGKTTKAGLNPISQTECYLFVLDKREGMDFIAPEQWPMMLAELLEEFGGAVGEFRRGPLDGSLMNHRLLYRPLAGHMINGPWHKGRIVLLGDAVHATTPHLASRAGIAVEGAIVLSEELARRRSLEGAFIAYAGRHYDRARLVVSASGRLGEIERESGSREEHTRIMIETQQALRAPI,not soluble
3,MTRVRDLMSTHIVHCTPLDNVYEAAVKMKEESIGLIPVVENEQVVGLVTDRDLVVRGIAEKHPGSNKITNVMTTNIISVSPNDSIEKATELMAQHQIRRLPVVDSGQLIGMLALGDLAIRESADDQAGFALSEISERTE,not soluble
4,MFVVPRRLSSFLSLVHEYRHLARRSYVMETPSIDIQNIRAKYLNSHDPYLLESKLPTTSPFELFDIWFRNVASQSDLTFEEINAVSLSTVGKDLRPSSRMVLLKAYTPTGFSFYTNYTSRKGNQLEENPNAAMLFYWPKVNRQIRVEGVVEKLPDEMAVAYWNSRPVASRIGSKSSDQSKVVPDREFLESKKVALTELSVREGAQAITKPESWGGYHLIPRYFEFWQGQSDRLHDRIVFERDVDVWLLKRLSP,not soluble
5,MSGAGHSLNSDPVTTIATSSSEPVTSPSSASHVPVQTAPASHGAPSSVASQPPASVDGKAGAPDEARTASSASNPQGSEHPGSVDPAATTTAATTSASTTSITSTAATTTTTTTTGTTATGRVSPTIPPETLFHDAIKRCNNCLFLIRKLRNKQDHIARLFLDTSGNDQAEFNSAFQNYKDFGLMVHEVMMFYDKLDHIARHLPKALPPIDNINLMRTLYTQEHTMCHININNLLEKMIDCGNWNEGNFQTFFYLSELLRCGSTRKYSNLPEQRLVPPAMFHSQATNSHAAFEHAFNGLRKEIANKSLGIYPKVLQRTTCSLIIEFLFGCGGAKPGEKNTDKEIVYTIKFLIIERNGSIEYINIMAPTEDWHMVNDYAIPTINPFAPSRYEVYRRLTKQANIHLFNCFAQNRWTAGTLFHFISLYGKFRELFTTKCRSCKQVLSRKNFLPPLIFDIRNPNNAAHEVCR,not soluble
6,MGSDKIHHHHHHMILSVSRRTDIPAFYSEWFFNRLKEGFVYVINPFNERKVSKVELNKETVDLFVFWTKDAEPMLKRLDELNEFKYYFQFTITSYRNDVERMTRKKKDIIDTFRILSKKIGKEKIIWRYDPIFLNDFYTKEYHYRWFERFCDKLEGYTDKCIISFLDLYKKTEINTRCLNIHKMDEKSMRQVAKQLSIIANKHNIIIETCSEGIDLSDYGIKKGSCIDKNLISKIIDFGVELKKDNNQRELCGCVKSVDIGQYNTCKHHCLYCYANFNEKLLNDSILKYNPKAPTLAYTLKGDEKITVREMESIKGNKQKQLDLFKNIKQGE,not soluble
7,MAVVGYISYDNRDTFMNAKDVLSTEIEAVNGKADTKESKECEDTQASDEVALETDSTEEILNAGETVLTSASTESEECVAQVKLGREQVRSKNKEALQKIIDDAGVSEAEKKSAVDAMVKLTENAQMEEDAQMMLEAKGFKNAVVSLSDECCDVIVGKDDVTDEKRAQIEDIIKRKTNIGASNIVISTMD,not soluble
8,MSLRARYKQLVDTFAADIRTGILAPGTRLPTHRELAAREGLALVTASRVYAELEAMGLVSGETGRGTYVRETALPPGQGVDQPATAPGTLDLNFNYPALPGQAELLRSALRQLAATGDLEALLRYQPHAGRSHERATVARYLAGHGLVVEGEQVLLVSGAQHGLSTTLMALLRPGDVVAVDALTYPGFKVVAEAHGLELLAIPLSEQGPDLEAFERLCQRRRVRAVYAMPTLHNPMGWVLDLAWRQRLVAIGRAHGLLIIEDAAYAFLAQDPPAPLAALAPEITVYISGFSKNVATGLRVGYVVAPPAWVALIERAIRTSTWNTPGVMTAMACAWIEDGTVARLEHQKREDAQARQALAREALAGLAYVSHPNSYFLWLPLPEEVRADQVAMALLREKVSVSTAEPFVGAGPVPHAIRLALGSVAMADLGVALARVRQVIGRYAFEGHHHHHH,soluble
9,MGSDKIHHHHHHMSVSISEKTKQAYQHAVEQASVSLLRQPQNSMADELRLLAEQLQPNEKRDVYGGGSLINDFEDEVAELLGKPAALFLPTGTLAQPLALRVHADERQRNGVALHPTSHLMLHEHMGFEALWKLNGTTTGFADNPITLNDLKSVQTDDLASVLLELPMREIGGQLPNWDDLVMQSEWARQHNIAMHLDGARLWQVPAAYGCSLPEVCELFDSVYVSFYKDLGGISGAILAGSEGFIEQAKIWARRAGGNIITQYPQVLSARHGLKENLPIMPEAVNYARALGEALSALNGVRVNPETPQVAMFHLHFALKANELSEKITDYASNTGVVLLPLPRAEMNNEAICEVSIGRNAMSQPQSFWLRHFKAFLDTL,not soluble
10,MKHLPQLEGVSVGLEGEAVSLFWGEIKEEERQEIYECAKALVPWRKGPFWVGDFLIDSEWVSAKKYALLEPHFDLCNKDVADIGCNNGYYMFRMWGQKPKSLTGFDPSPLCRTQFDFINHFIQAPIRFELLGVEHLEGYGKLFDVIFCLGVLYHRSDPIQTLKSLYKGLAKGGELLLDTLMIEGEEEVALTPKDRYAKMSNVYFIPTFKALSHWLHRAGFERVEKLEIAKTGLDEQRKTEWINSQSLEDFLDPCSHDRTIEGYPAPRRIYVKAYKGA,not soluble
11,MKRYTVKDIEALLPKLGADDPRWEMLRQDERKSVQALLARFERQKARRHAIEQRWEELMRYERELYAAGVRRIAGIDEAGRGPLAGPVVAAAVILPKDAYLPGLDDSKRLTPEKREALFAQIEACAVAIGIGIVSAAEIDERNIYEATRQAMAKAVNALSPPPEHLLVDAMAVPCPLPQQRLIKGDANSASIAAASVIAKVTRDRWMKELDRRYPQYGFARHMGYGTPEHFEAIRRYGVTPEHRRSFAPVREVLKASEQL,soluble
12,MIVMATCLLPDETDDACARNPWISHELVTSTVGPGDGLDLRAACSTGTLISGGCSADTFPDDELSLMRSGFAPDNRDEWLCSFKSLHESVTYEVATMAFCLNEDPLPAECGCCPPLAEQLTIRQTNEPLRNGPNRLEASCEDDEFLLIGNCMLDVPAVSEVESVTMFRYGYPPTDEHPDGDYSKWGCSWHNPTGYTPRALANAVCLPAQ,not soluble
13,MGSDKIHHHHHHMKFVQKIYYFLFKLVGFLPRRKELVMFESFSGKQYSCNPRAIFEYMEEHNPEYELLWSVNPKYVDLFEAHGVPYVKRFSVNWLFKMGLAKFWISNSRLPLELPKPKKTIYVQTWHGTPLKKLGVDIDEVHMPGQTTEQYKADFVKEAQKWDYLISPNAYSSTIFRRAFGFTGEMIESGYPRNDILFSADKELKIANIKMALNIPEDKKVILYAPTWRDNDFYEIGKYKFDLKIDIAKMQEKFGDEVVLLVRMHYLVAEHFDFTQYGDFVRDASKHEDIRDLYLVSDLLITDYSSVFFDYANLKRPMLFYTYDLAEYRDTLRGFYFDFEQNAPGPLVEMNDALMAEIEIMLENPPQIAESFLEQFCTWEDGHAAEKTVKKVFAEK,not soluble
14,MPCAETFGSEYFLAQGSPVNSTATPPEPLPPFLQPGDRVLLFDGVCKLCNASVRFVIRHDSQRRIKLASVQSPQGQALLAWFGLPTEQFDSVVLIEEGRLSQRSDAFIRLMAQLPAPWRWLRLLRGVPRPLRDWVYDLIARNRYRLFGRLDVCLLPSPDHQGRFLDDPSLEHHHHHH,not soluble
15,MDMERNRLYFFYKRDDKLIERVKPLIELAERGPFVVVDDYREANIIVSIGDDGAFLQAVRQTGFLPDRLYVGVSVLPARGFYCDFHIDDIDHMVEAAKNWKLEVRRYPIIEVTIDGAASFFCLNECSIRSQIIKTMAIDVFIDDLHFETFRGDGIIVSTPTGSTGYNKSVHGAVVDPLLPCFQVSELASLNSNRYRTLGSPFILSGSRTLTLKMSEETSHFPIIGLDNEALSIQHIERIDIRLSDRVVKTVRLKDNSFWDKVKRVFL,not soluble
16,THGWNFQVSANAAYNKNEVMDLKNGGARIWSGKYFNQEGYAINSIGGYIAEGLFKTEEEVANSATIPGTDTAPGDIKYRDINNDGKIDGEDRVYIGNTMPKWTFGLNLFAEWKGLDATFLFQGAADVQGYLAGPGVVGEMIGAKGKPSYMYRDCWDAETNPNGKFPRAFSSYRQNNSIYNPSSFWIVNSSYLRLKNFQLGYTLPKEWCNMMGISRIRVYYSGQNLLTFTKFDKGFDPESPEGGSSYPQVKTNTFGLNITF,not soluble
17,MSIMDVQHVAQFYQQLDKSQLHRLIEIYHPDVVFEDAAHRIEGFDALYQYFLNLYQNVHTCTFTIHEQYAVNEGAFLVWTMHLRHPKLAKGEQVDVKGVSHLHFAEGKVTYHRDYFDMGEMLYEQLPVLGQVIRAIKRRLGQ,not soluble
18,MDGISLYDDCVMLAYNKEVRRNCLPFTCGENDLDDFFLNDADLYADELLGKTYCWVTTEIPHRIVALFTLSNDSIKTRLISPNDKNRLQRNIVNPKRGRSYPAVLIGRLGVNLEYQGTSSHVGRQLMAFIKDWFRHEDNKTGCRFIVVDAYNEEKILRYYERNGFVPLYKTDVIEKQYYDIPQDEPLKTRLLYFDLKKD,not soluble
19,MSLGEHILLNQTLSDVIHYFKSQRCGGVFDQQDRQVPVLNANQTVDVHGGWYDASGDVSKYLSHLSYANYLNPQQTPMVVWNILKGLSLLEGSEDIAAFTRTRLIEEALFGADFLVRMQNEKGFFYMTVFDKWSKDTAQREICAYETQLGHKFDDYQAGFRQGGGVAIAALAAASRLGVHGEYDQQKYRNAAENGYWHLKEHNTQYLNDGEENIIDEYCALLASVELFKATKETRYLEESRLWAQRLVARQMSDEQIQHFWSANQDGSRPYFHAAEAGLPGIALCEYLAIEDDSVQTESVKCIVNRACEFEIKISNKVTNPFGYPRQYVKGVNESKRDAFFVAHNNESGYWWQGENARLGSLATMAYLAQPHIASQEIQQQLSVFAQDALNWIVGLNPYDMCMLDGHGRNNPDYLPQYGFFNAKGGVCNGITGGFEDEEDIAFNPPAQKDDMLQNWRWGEQWIPHGAWYLLAIMSQAQHISQLATSKNIKEGHHHHHH,not soluble
20,MKNSLRIPRIIHQTWKTKDVPSPLDQLPQTWKEYLPNWEYILWTDEMNREFVCKHFPDFLEKYDTYPCNIQRADAIRYLLLKVYGGLYVDMDFECLENIEFLLEGSDFIVGKEPDWHAKRFGFEYIICNAFMASTPDNDFINFVCQRLINHSGGKVVNNGFDILDSTGPFLLTHAFNAFPHKEDIRILESKTIYPIGQWEVEKIKNNQIPKEMEERINQAHAIHYFFGTWFGKLEHHHHHH,not soluble
